Source: patent US9289478B2, “Formulations of tumour-associated peptides binding to human leukocyte antigen (HLA) class I or class II molecules for vaccine” (IMMATICS BIOTECHNOLOGIES GMBH, priority 2008, dated 2016)

Assays:
[1] = Stability of renal cell cancer vaccine test formulations at +25° C. and +40° C. by analytical HPLC assay; format: physicochemical; details: especially at +40° C.
Procedure: Various lyophilisates were tested with respect to stability of each individual peptide at +25° C. and […] using an analytical HPLC assay.
The peptides according to the SEQ ID NOs: 1 to 10 were lyophilised without any excipients and by addition of mannitol and Poloxamer 188 (LUTROL F68®) or TWEEN 80®.
The following test formulations were produced and stability were assessed at +25° C. and +40° C. by analytical HPLC assay:
Initial HPLC measurements have been performed for each formulation before storage in a climate chamber. For this purpose, the content of two vials was completely dissolved in 30% acetic acid and measured by RP-HPLC by repeat determination. To assure comparability between the individual measurements, β-Naphtyl-alanine was used as internal standard and lyophilized together with the peptides.
After 7, 14, 21, and 28 days, another two vials were removed from the climate chamber to assess stability.
Data assessment was performed by repeat determination of one vial. For one time point and temperature, two independent vials were used to obtain four data points in total. These values have been taken to calculate the standard deviation shown as error bars in the relevant diagram.

[2] = HPLC-assay for in-use stability after reconstitution with 4.2% sodium hydrogen carbonate solution (Example 2, peptides SEQ ID NO 1-10); format: physicochemical
Procedure: Resolubilization procedure: For clinical trials the above described formulation is dissolved in 700 μl sodium hydrogen carbonate (4.2%). Remove plastic cap from one vial. Unpack and remove sodium hydrogen carbonate (4.2%) from the refrigerator at least 30 min before resolubilization to bring them up to room temperature before injection. Prepare syringe and needle for reconstitution. Use aseptic technique to take 700 μL of diluent for reconstitution of the lyophilisate. To dissolve the lyophilisate, the vial and the diluent shall be shaken vigorously for 1 minute, check whether solution is clear, otherwise continue shaking for another minute until the solution is clear. 10 to 30 minutes after GM-CSF injection, use a new syringe to administer 500 μL reconstituted formulation i.d. at the same site. Administration has to occur within 1 h after reconstitution. Dissolved lyophilisate may be stored aseptically at room temperature for up to 1 hour following reconstitution.
However, a decrease of two specific peptides, i.e. IMA-CCN-001 and IMA-RGS-001 took place (see Table 6). As these peptides contain a cysteine residue, time-depending dimerization takes place.
Identity, purity and peptide content are determined by analytical RP-HPLC chromatography. Detection wavelength was 220 nm.

[3] = +mannitol/lutrol, 1 h after reconstitution
[4] = +mannitol/lutrol, 2 h after reconstitution
[5] = +mannitol/lutrol, 3 h after reconstitution
[6] = +mannitol/lutrol, 4 h after reconstitution
[7] = +mannitol/lutrol, 5 h after reconstitution
[8] = +mannitol/lutrol, 6 h after reconstitution
[9] = +mannitol/lutrol, Initial (starting value set to 100%)
[10] = no excipients, 1 h after reconstitution
[11] = no excipients, 2 h after reconstitution
[12] = no excipients, 3 h after reconstitution
[13] = no excipients, Initial (starting value set to 100%)

Row | Sequence | peptide signal in formulations containing TWEEN 80 [1] | in-use stability, peptide by HPLC-assay [2, 3] | in-use stability, peptide by HPLC-assay [2, 4] | in-use stability, peptide by HPLC-assay [2, 5] | in-use stability, peptide by HPLC-assay [2, 6] | in-use stability, peptide by HPLC-assay [2, 7] | in-use stability, peptide by HPLC-assay [2, 8] | in-use stability, peptide by HPLC-assay [2, 9] | stability after reconstitution (in words) ([2]; Example 2 formulation, 4.2% sodium hydrogen carbonate) | in-use stability, peptide by HPLC-assay [2, 10] | in-use stability, peptide by HPLC-assay [2, 11] | in-use stability, peptide by HPLC-assay [2, 12] | in-use stability, peptide by HPLC-assay [2, 13]
1 | LAALPHSCL (listed as Homo sapiens) [RGS-001, RGS-5 tumour-associated peptide] | enhanced degradation | 97.9% | 95.5% | 94.2% | 91.6% | 88.0% | 86.8% | 100.0% | decrease | 90.9% | 77.8% | 64.6% | 100.0%
2 | SVASTITGV (listed as Homo sapiens) [ADF-001, Adipophilin tumour-associated peptide] | increase of the signal | 99.6% | 99.6% | 100.7% | 100.8% | 99.9% | 101.8% | 100.0% | – | 102.4% | 102.4% | 100.0% | 100.0%
